One molecule from patent publication US20250313627A1 (FUSE BIOTHERAPEUTICS, published 2025) can be followed below.

For assay [1], the target named is T1, recombinant His tagged human ROR1 (human, UniProt Q01973 30-403, limits assumed).
T1 construct: Analyte in the BLI assay; also called Human ROR1-His; recombinant ROR1
Briefly: BLI (Octet), FUSE protein loaded on the biosensor, His tagged ROR1 in solution. As for the experimental part:
(§1) As shown in FIGS. 5A-5D, the binding affinities (KD) of TCEs for ROR1 were assessed. We examined the magnitude by which several TCEs and mutants thereof bind to recombinant ROR1. Kinetic binding graphs were generated via Bio-Layer Interferometry (BLI) using an Octet system. For each TCE, the biosensor tips were coated with FUSE proteins at 15 μg/ml and probed with either recombinant His tagged ROR1 at concentrations ranging from 100 pM to 10 μM. […] The binding affinity (KD), on rate (k-on) and off rate (k-dis), are summarized for ROR1 in FIG. 5D.
(§2) Antibodies were prepared in 1×PBS with 0.02% Tween-20 with the final concentration of 15 ug/ml. Human ROR1-His or CD3e-His protein were also prepared, and serial diluted (4-fold dilution ranging from 400 nM to 0.098 nM) in 1×PBS with 0.02% Tween-20. The biosensors were pre-moistened in 200 uL of 1×PBS with 0.02% Tween-20 for 10 minutes. Meanwhile, Octet BLI system (ForteBio) was prewarmed for 30 minutes and the flow rate was set to 1000 rpm. The biosensors (Anti-hIgG Fc Capture biosensor) were soaked in 250 uL of 1×PBS with 0.02% Tween-20 for 60 seconds at 30° C. to get an initial baseline reading. After the 60-second baseline reading, the biosensors were exposed to testing antibody for 300 seconds at 30° C. for the association between antibody and the biosensors (coupling antibody with biosensor). The biosensors with antibody were then exposed to human ROR1 or CD3e in 250 uL of 1×PBS with 0.02% Tween-20 at 30° C. for 300 seconds for the association reaction between antibody and human ROR1 or CD3e (association curve). After 300-second association reaction between antibody and antigen, the biosensors with antibody and antigen were then exposed to 250 uL of 1×PBS with 0.02% Tween-20 at 30° C. for 300 seconds for the dissociation reaction between antibody and […]. The binding affinity was calculated by the built-in data fitting algorithm.
For orientation: BLI is a label-free optical method that tracks binding on a fibre tip over time.

The target of assay [2] is T2, human ROR1 (Receptor Tyrosine Kinase-Like Orphan Receptor 1) on the cell surface (human, UniProt Q01973 30-937).
T2 construct: whole, on cells; engineered into B16-F10 (high density) and LS174T (low density) cells; also called B16-F10-ROR1-H; LS174T-ROR1-L
T2 sequence (Q01973 30-937): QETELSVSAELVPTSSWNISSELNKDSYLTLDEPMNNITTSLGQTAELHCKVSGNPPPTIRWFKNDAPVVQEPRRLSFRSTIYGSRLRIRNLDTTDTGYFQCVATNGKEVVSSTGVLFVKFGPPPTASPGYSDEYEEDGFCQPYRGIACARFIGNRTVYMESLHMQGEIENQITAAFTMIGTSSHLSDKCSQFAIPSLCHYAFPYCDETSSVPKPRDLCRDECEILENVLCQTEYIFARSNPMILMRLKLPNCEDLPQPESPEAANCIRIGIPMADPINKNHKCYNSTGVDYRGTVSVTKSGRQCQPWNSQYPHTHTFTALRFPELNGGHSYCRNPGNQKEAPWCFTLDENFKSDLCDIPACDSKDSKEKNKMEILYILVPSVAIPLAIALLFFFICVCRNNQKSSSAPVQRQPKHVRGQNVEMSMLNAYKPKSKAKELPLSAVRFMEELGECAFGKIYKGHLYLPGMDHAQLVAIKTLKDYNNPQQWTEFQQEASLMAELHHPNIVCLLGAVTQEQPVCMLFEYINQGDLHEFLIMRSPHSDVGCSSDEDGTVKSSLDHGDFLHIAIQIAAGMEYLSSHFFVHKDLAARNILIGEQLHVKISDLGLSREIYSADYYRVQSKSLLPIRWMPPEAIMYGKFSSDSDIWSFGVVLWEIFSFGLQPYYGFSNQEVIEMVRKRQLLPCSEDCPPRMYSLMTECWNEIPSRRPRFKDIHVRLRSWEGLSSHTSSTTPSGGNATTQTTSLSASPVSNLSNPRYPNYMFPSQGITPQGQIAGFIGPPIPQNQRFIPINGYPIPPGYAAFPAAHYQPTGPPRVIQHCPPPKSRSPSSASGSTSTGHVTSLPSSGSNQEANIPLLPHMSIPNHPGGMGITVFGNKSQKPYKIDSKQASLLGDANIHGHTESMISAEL
In words: flow cytometry on MDA-MB-231 ROR1 super high cells (about 2,000,000 ROR1 per cell), secondary antibody to the IgG1 Fc. How it is done: (§3) Binding of 2A11 (black line), 5A1 (dark grey line) and VHH8 (medium grey line) were tested in TCE format 12A. The commercial ROR1 specific Ab reported to bind the ROR1-Ig domain 2A2 (light grey line), served as the positive control and anti-HEL (dotted black line) served as the negative control. To better visualize binding of each test article to the three cells lines, we plotted MFI on the y-axis for each test article for HEK-293 cells (negative control; FIG. 4I), HEK-293 cells transfected with full length human ROR1 (FIG. 4J) and HEK-293 cells transfected with the ROR1 Ig domain linked to the cell surface via the GPI linker from CD59 (FIG. 4K).
(§4) Adherent target cells were collected by brief TrypLE treatment while suspension cells were directly collected. Collected cells were washed once with PBS by centrifugation at 500×g for 5 minutes at room temperature and added to V-bottom 96-well plate (200,000-300,000 cells per well). To prepared Live/Dead fixable red, one vial of powder was dissolved into 50 uL of DMSO to make stock solution and then diluted 1 uL of stock Live/Dead fixable red in 1 mL of PBS to prepare the working solution. 100 uL of Live/Dead fixable red working buffer was then added to the cell in the V-bottom 96-well plate (200,000-300,000 cells per well) and incubated for 15 minutes at room temperature. After the 15-minute incubation, the cells were washed twice with PBS by centrifugation at 500 g for 5 minutes at room temperature. The cells were then cultured with antibodies at different concentrations in 100 uL of Biolegend staining buffer at 4° C. for 45 minutes. After the 45-minute incubation with primary antibody, the cells were washed with PBS by centrifugation at 500 g for 5 minutes at room temperature. The cells were then cultured with PE-Cy7-conjugated mouse-anti-human IgG secondary antibody in Biolegend staining buffer at 4° C. for 45 minutes. […] The samples were then analyzed on Cytek flow cytometer.
In general terms: In flow cytometry, cells or beads pass a laser one at a time.

For assay [3], the target named is T2, human ROR1 (Receptor Tyrosine …). Briefly: flow cytometry on MDA-MB-231 ROR1 high cells (about 500,000 ROR1 per cell), secondary antibody to the IgG1 Fc. As for the experimental part: as §3, §4
Assay [4] has the same target. Briefly: flow cytometry on MDA-MB-231 ROR1 low cells (about 17,000 ROR1 per cell), secondary antibody to the IgG1 Fc. As for the experimental part: as §3, §4
The target of assay [5] is T1, recombinant His tagged human ROR1. Briefly: BLI (Octet), FUSE protein loaded on the biosensor, His tagged ROR1 in solution; column 'kdis(1/s)'. How it is done: as §1, §2
Assay [6] deals with T2, human ROR1 (Receptor Tyrosine …). In words: flow cytometry on MDA-MB-231 ROR1 normal cells (about 35,000 ROR1 per cell), secondary antibody to the IgG1 Fc. As for the experimental part: as §3, §4

T1 sequence (Q01973 30-403 limits assumed): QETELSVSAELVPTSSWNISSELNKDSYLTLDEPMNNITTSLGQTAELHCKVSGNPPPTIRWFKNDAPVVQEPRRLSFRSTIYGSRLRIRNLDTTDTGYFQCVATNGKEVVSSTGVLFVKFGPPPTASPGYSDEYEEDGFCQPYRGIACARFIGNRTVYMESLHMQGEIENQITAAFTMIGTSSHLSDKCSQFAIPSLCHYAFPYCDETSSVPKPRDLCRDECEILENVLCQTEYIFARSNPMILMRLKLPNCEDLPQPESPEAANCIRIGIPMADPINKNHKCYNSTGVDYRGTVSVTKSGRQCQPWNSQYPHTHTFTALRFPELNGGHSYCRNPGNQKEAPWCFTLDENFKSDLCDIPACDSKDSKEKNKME

B1: FUSE-211 (bispecific antibody, human IgG1, lambda, L234A L235A)
chain: QVQLQESGGGSVPAGGSLRLSCAASGSTYSANCMGWFRQAPGKEREEVASMSIRSGRTYYSDSVKGRFTISQDGSKNTLYLQLNSLKAEDTALYYCAAAYGGSRCVYNYRGQGTQVTVSSGGGGSGGGGSGGGGSQVQLQESGGGSVPAGGSLRLSCAASGSTYSANCMGWFRQAPGKEREEVASMSIRSGRTYYSDSVKGRFTISQDGSKNTLYLQLNSLKAEDTALYYCAAAYGGSRCVYNYRGQGTQVTVSSEPKSSDKTHTCPPCPAPEAAGGPSVFLFPPKPKDTLMISRTPEVTCVVVDVSHEDPEVKFNWYVDGVEVHNAKTKPREEQYNSTYRVVSVLTVLHQDWLNGKEYKCKVSNKALPAPIEKTISKAKGQPREPQVYTLPPSREEMTKNQVSLSCAVKGFYPSDIAVEWESNGQPENNYKTTPPVLDSDGSFFLVSKLTVDKSRWQQGNVFSCSVMHEALHNRFTQKSLSLSPGK
heavy: EVQLVESGGGLVQPGGSLRLSCAASGFTFSTYAMNWVRQAPGKGLEWVARIRSKYNNYATYYADSVKDRFTISRDDSKNTLYLQMNSLRAEDTAVYYCARHGNFGNSYVSWFAYWGQGTMVTVSSASTKGPSVFPLAPSSKSTSGGTAALGCLVKDYFPEPVTVSWNSGALTSGVHTFPAVLQSSGLYSLSSVVTVPSSSLGTQTYICNVNHKPSNTKVDKKVEPKSCDKTHTCPPCPAPEAAGGPSVFLFPPKPKDTLMISRTPEVTCVVVDVSHEDPEVKFNWYVDGVEVHNAKTKPREEQYNSTYRVVSVLTVLHQDWLNGKEYKCKVSNKALPAPIEKTISKAKGQPREPQVYTLPPSREEMTKNQVSLWCLVKGFYPSDIAVEWESNGQPENNYKTTPPVLDSDGSFFLYSKLTVDKSRWQQGNVFSCSVMHEALHNHYTQKSLSLSPGK
light: QAVVTQEPSLTVSPGGTVTLTCRSSTGAVTTSNYANWVQQKPGQAPRGLIGGTNKRAPGTPARFSGSLLGGKAALTLSGVQPEDEAEYYCALWYSNLWVFGGGTKLTVLGQPKAAPSVTLFPPSSEELQANKATLVCLISDFYPGAVTVAWKADSSPVKAGVETTTPSKQSNNKYAASSYLSLTPEQWKSHRSYSCQVTHEGSTVEKTVAPTECS
notes: Hole chain: 2A11-linker-2A11-Fc; knob chain: anti-CD3 Fab heavy chain-Fc; anti-CD3 light chain; also called format 11A incorporating 2A11
With B1, in assay [1], the Kd stood at 17 nM. Also, the kon in assay [1] worked out at 135000 M⁻¹ s⁻¹. The EC50 in assay [2] turned out to be 0.19 nM; in assay [3] it was 0.55 nM; in assay [4] it was 0.4 nM; in assay [6], 0.45 nM. In addition, in assay [5], the koff worked out at 0.00229 s⁻¹.

The term Kd denotes the equilibrium constant for the complex coming apart. The term kon denotes the second-order rate constant of association. The EC50 is the midpoint of the concentration-response curve. What is called koff is a measure of how fast the partners let go of each other.
